Assays:
[1] = target: S. cerevisiae Cenp-A nucleosome wrapped with the 147 bp Widom 601 sequence (S. cerevisiae) (UniProt P36012); experiment: AUC
[2] = target: 14 subunit-CCAN complex (constitutive centromere associated network), S. cerevisiae (S. cerevisiae) (UniProt P35201); experiment: AUC
[3] = target: 14 subunit-CCAN complex (constitutive centromere associated network), S. cerevisiae (S. cerevisiae) (UniProt P35201); experiment: SEC-MALS
[4] = target: S. cerevisiae Cenp-A nucleosome wrapped with the 147 bp Widom 601 sequence (S. cerevisiae) (UniProt P36012); experiment: SEC-MALS + AUC
[5] = target: 14 subunit-CCAN complex (constitutive centromere associated network), S. cerevisiae (S. cerevisiae) (UniProt P35201); experiment: cryo-EM structure

14 subunit-CCAN complex (constitutive centromere associated network), S. cerevisiae (from UniProt P35201;Q12262;Q12748;P47167;P43618;Q2V2P8;P38265;P38907;Q06675;Q02732;P53298;P38313;Q12493;Q06162)
stoichiometry N (CCAN per Cenp-A^Nuc) [1]: 1
stoichiometry N [2]: 2
stoichiometry N [3]: 2
stoichiometry N (CCAN per Cenp-A^Nuc) [4]: 2
stoichiometry N [5]: 2

— paper PMC6859074
